The text below walks through data of US20190040156A1 (Eli Lilly, published 2019).

As usually defined, the Kd is the equilibrium constant for the complex coming apart. The koff is the rate constant with which the complex falls apart. In general, kon refers to a measure of how fast the partners come together.

Test [1] concerns the target non-cleavable form of human membrane TNFα on CHO cells (human, UniProt P01375 1-233). Description: cell-based or functional assay.
Test [2] has as its target T1, human IL-23 (human, UniProt Q9NPF7 20-189; P29460 23-328).
T1 sequence (looked up) 1: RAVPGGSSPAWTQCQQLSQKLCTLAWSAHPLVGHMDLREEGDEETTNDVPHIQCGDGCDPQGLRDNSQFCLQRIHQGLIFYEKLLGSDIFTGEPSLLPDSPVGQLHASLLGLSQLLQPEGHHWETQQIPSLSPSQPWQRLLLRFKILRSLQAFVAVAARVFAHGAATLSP
T1 sequence (looked up) 2: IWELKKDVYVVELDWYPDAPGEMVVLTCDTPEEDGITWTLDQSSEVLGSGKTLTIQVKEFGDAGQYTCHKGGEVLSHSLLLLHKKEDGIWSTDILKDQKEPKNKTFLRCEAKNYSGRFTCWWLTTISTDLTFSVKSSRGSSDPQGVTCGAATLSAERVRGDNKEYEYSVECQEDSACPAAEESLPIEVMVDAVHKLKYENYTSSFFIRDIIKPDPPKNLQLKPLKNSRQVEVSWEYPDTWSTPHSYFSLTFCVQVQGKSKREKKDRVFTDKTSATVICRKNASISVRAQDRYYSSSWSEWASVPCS
Description: cell-based or functional assay.

Test [3] concerns the target T2, human TNFα (human, UniProt P01375 77-233). The test can be described thus: cell-based or functional assay.
The target in test [4] is T3, human FcγRIIa (CD32a) (human, UniProt P12318 34-217, limits assumed).
T3 construct: Soluble analyte in SPR
T3 sequence (looked up): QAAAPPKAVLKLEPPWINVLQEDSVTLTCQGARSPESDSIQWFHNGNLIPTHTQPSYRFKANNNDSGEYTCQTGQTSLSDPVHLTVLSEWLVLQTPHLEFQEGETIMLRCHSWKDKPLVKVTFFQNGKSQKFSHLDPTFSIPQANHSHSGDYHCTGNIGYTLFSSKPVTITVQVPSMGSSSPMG
The test can be described thus: SPR, Biacore T200, antibody captured on protein A, FcγR as analyte, 37 °C, N=3. As for the experimental part:
(§1) A CM5 chip (Biacore P/N BR-100-50) containing immobilized protein A (generated using standard NHS-EDC amine coupling) on all four flow cells is used to employ a capture methodology. IgG bispecific antibody samples are prepared by dilution of approximately 5 μg/mL into running buffer and approximately 300 RU is captured on the flow cells. Human FcγRI (produced from transient CHO cells and purified using IMAC and size exclusion chromatography) is prepared at final concentrations of 200.00, 100.00, 50.00, 25.00, 12.50, 6.25, 3.12, 1.56, and 0.78 nM by two-fold serial dilution into running buffer. Human FcγRIIa, FcγRIIb and FcγRIIIa (produced from transient CHO cells and purified using IMAC and size exclusion chromatography) are prepared at final concentrations of 10,000.0, 5,000, 2,500, 1,250, 625, 313, 157, 78, and 39 nM by two-fold serial dilution into running buffer.
(§2) Each analysis cycle consists of: (1) capturing antibody samples on flow cells; (2) injection of each human FcγRI, FcγRIIa, FcγRIIb and FcγRIIIa concentration over the flow cells at 40 μL/min for 60 seconds followed by return to buffer flow for 120 seconds to monitor dissociation phase; (3) regeneration of chip surfaces with injection of 10 mM glycine, pH 2.0. for 30 seconds at 50 μL/min over all flow cells; and (4) equilibration of chip surfaces with a 50 μL (60-sec) injection of HBS-EP+ running buffer. Data are processed using standard reference-subtracted method fit to a 1:1 binding model using Biacore T200 […] Evaluation software, version 1.0, to determine the equilibrium dissociation constant (KD) which is calculated from the relationship KD=koff/kₒₙ, and is in molar units.
A general note: Surface plasmon resonance follows binding to a sensor surface in real time, without labels.

Test [5] deals with T4, human FcγRIIb (CD32b) (human, UniProt P31994 43-217, limits assumed).
T4 construct: Soluble analyte in SPR
T4 sequence (looked up): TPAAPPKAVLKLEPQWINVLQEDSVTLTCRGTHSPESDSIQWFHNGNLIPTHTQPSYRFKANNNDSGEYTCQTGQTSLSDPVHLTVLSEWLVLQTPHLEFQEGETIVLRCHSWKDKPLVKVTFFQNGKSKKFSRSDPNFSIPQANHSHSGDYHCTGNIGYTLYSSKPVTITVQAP
The description is as above. Here is the method: as §1, §2

Test [6] concerns the target T5, human FcγRIIIa (CD16a) (human, UniProt P08637 17-208).
T5 construct: Soluble analyte in SPR
The test is described as above. Here is the method: as §1, §2

Test [7] addresses T6, human FcγRI (CD64) (human, UniProt P12314 16-288, limits assumed).
T6 construct: Soluble analyte in SPR
The description is as above. Here is the method: as §1, §2

Test [8] has as its target T7, human complement component C1q (human, UniProt P02745 23-245; P02746 28-253; P02747 29-245).
T7 construct: Bought protein; also called human C1q
The test can be described thus: ELISA, antibody coated on the plate (10 to 0.19 µg/mL), human C1q at 10 µg/mL, anti-C1q-HRP detection.
Description: Plates are incubated overnight at 4° C. with coating agent (to coat wells with antibody) followed with two hours of blocking (casein, 200 μL) at room temperature and then three washes with wash buffer (1×TBE with 0.05% Tween 20).
100 μL of human C1q (10 μg/mL) (MS Biomedical) in casein blocking reagent is added to each well and plates are incubated for 3 hours at room temperature. Following incubation plates are washed three times followed by addition of 100 μL/well (at 1:800 dilution) of Sheep anti-human C1q-HRP (Abcam #ab46191) in casein blocker. Plates are incubated for 1 hour at RT. Following incubation, plates are washed 6 times with wash buffer, and 100 μL/well of TMB Substrate (Pierce) is added to each well. Plates are incubated for 7 minutes followed by addition of 100 μL of 1.0N HC1 to each well to stop the reaction. Optical density is immediately measured using a colorimetric microplate reader set to 450 nm.

For test [9], the target named is T1, human IL-23. Description: SPR, Biacore T200, antibody captured on protein A, antigen as analyte, 37 °C, 1:1 model, n=3. Here is the method:
(§3) A CM4 chip (Biacore P/N BR-100534) containing immobilized protein A (generated using standard NHS-EDC amine coupling) on all four flow cells is used to employ a capture methodology. IgG bispecific antibody samples are prepared by dilution of 5 μg/mL into running buffer and approximately 100-150 RU is captured on the flow cells. […] Human TNFα are prepared at final concentrations of 50.0, 25.0, 12.5, 6.25, 3.12, 1.56, 0.78, 0.39, 0.19 and 0 (blank) nM by dilution into running buffer.
(§4) Each analysis cycle consists of (1) capturing antibody samples on flow cells (Fc3); (2) injection of each human IL-23 concentration over the flow cells at 80 μL/min for 200 seconds followed by return to buffer flow for 900 seconds to monitor dissociation phase; (3) injection of each human TNFα concentration over the flow cells at 80 µL/min for 200 seconds followed by return to buffer flow for 900 seconds to monitor dissociation phase; (4) regeneration of chip surfaces with injection of 10 mM glycine, pH 2.0, for 30 seconds at 50 μL/min over all flow cells; and (5) equilibration of chip surfaces with a 50 μL (60-sec) injection of HBS-EP+ running buffer. Data are processed using standard reference-subtracted method fit to a 1:1 binding model using Biacore T200 Evaluation software, version 1.0, to determine the association rate (kₒₙ, M⁻¹s⁻¹ units), dissociation rate (koff, s⁻¹ units), and RUₘₐₓ (RU units). The equilibrium dissociation constant (KD) is calculated from the relationship KD=koff/kₒₙ, and is in molar units.

Test [10] concerns the target T2, human TNFα. Described as above. As for the experimental part: as §3, §4
Test [11] concerns the target human FcγRIIIa (V158) on Jurkat NFAT-FF reporter cells (human, UniProt P08637 17-254). Description: cell-based or functional assay.

T2 sequence (P01375 77-233 limits assumed): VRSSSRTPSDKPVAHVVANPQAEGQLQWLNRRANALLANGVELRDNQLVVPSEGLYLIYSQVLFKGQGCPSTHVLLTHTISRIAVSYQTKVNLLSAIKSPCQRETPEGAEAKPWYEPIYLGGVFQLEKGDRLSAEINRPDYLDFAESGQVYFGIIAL
Sequence of non-cleavable form of human membrane TNFα on CHO cells (P01375 whole entry): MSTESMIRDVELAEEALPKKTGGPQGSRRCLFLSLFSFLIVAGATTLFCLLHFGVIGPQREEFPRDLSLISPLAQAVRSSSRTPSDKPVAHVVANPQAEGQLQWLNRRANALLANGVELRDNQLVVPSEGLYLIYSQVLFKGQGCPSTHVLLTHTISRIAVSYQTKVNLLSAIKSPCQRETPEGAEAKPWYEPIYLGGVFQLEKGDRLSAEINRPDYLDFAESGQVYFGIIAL
T6 sequence (P12314 16-288 limits assumed): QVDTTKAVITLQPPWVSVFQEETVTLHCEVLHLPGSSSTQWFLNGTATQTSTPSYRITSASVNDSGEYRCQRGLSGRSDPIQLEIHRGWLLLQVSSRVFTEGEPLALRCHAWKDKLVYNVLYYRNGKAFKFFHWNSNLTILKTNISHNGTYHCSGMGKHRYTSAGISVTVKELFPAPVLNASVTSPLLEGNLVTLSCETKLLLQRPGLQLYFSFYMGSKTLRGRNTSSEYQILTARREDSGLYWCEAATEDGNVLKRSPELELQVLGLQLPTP
T7 sequence (P02745 23-245 limits assumed, chain 1 of 3): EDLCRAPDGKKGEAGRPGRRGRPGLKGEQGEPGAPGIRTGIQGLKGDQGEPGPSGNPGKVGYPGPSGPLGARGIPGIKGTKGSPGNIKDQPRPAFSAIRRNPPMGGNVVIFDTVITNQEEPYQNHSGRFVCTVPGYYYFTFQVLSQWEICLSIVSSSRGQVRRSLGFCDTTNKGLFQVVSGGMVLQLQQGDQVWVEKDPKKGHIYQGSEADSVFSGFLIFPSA
T7 sequence (P02746 28-253 limits assumed, chain 2 of 3): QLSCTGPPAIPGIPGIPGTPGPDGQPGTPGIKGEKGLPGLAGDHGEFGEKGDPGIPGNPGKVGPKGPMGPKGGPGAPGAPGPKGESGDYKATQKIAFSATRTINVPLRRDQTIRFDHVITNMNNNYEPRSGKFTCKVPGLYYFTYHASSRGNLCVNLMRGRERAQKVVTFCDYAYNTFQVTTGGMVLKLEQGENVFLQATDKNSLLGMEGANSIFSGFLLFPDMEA
T7 sequence (P02747 29-245 limits assumed, chain 3 of 3): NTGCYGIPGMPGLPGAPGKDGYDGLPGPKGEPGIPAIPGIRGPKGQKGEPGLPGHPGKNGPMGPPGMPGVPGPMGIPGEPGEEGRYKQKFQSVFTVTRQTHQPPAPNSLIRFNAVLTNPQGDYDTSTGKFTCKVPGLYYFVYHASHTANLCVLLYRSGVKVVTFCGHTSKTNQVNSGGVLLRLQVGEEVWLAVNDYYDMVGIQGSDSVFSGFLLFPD
Sequence of human FcγRIIIa (V158) on Jurkat NFAT-FF reporter cells (P08637 17-254 F176V limits assumed): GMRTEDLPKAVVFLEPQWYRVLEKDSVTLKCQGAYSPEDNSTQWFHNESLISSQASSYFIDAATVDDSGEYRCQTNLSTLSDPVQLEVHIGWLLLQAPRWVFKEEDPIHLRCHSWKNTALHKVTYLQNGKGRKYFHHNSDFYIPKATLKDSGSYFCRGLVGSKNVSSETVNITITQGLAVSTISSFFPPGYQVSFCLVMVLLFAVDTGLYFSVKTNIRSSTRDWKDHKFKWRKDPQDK
T5 sequence (P08637 17-208 limits assumed): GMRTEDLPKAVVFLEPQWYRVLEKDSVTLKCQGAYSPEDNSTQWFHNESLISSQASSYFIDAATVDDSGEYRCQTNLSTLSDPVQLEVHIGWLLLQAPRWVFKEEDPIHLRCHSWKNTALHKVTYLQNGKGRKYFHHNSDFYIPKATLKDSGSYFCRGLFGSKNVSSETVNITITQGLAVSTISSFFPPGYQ

B1: exemplified IgG bispecific antibody (anti-TNFα / anti-IL23p19) (bispecific antibody)
heavy 1: not shown
light 1: not shown
heavy 2: QVQLVQSGAEVKKPGSSVKVSCKASGYPFTRYVMHWVRKAPGQGLEWMGYINPYNDGVNYNEEFKGRVTITADTSTSTAYMELSSLRSEDTAVYYCARNWDTGLWGQGTTVTVSSASTKGPSVFPLAPSSKSTSGGTAALGCLVKDYFPEPVTVSWNSGALTSGVATGPAVLQSSGLYSLSSVVTVPSSSLGTQTYICNVNHKPSNTKVDKKVEPKSCDKTHTCPPCPAPELLGGPSVFLFPPKPKDTLMISRTPEVTCVVVDVSHEDPEVKFNWYVDGVEVHNAKTKPREEQYNSTYRVVSVLTVLHQDWLNGKEYKCKVSNKALPAPIEKTISKAKGQPREPQVSTLPPSREEMTKNQVSLMCLVYGFYPSDIAVEWESNGQPENNYKTTPPVLDSDGSFFLYSVLTVDKSRWQQGNVFSCSVMHEALHNHYTQKSLSLSPG
light 2: RIQMTQSPSSLSASVGDRVTITCKASDHIGKFLTWYQDKPGKAPKLLIYGATSKLTGVPSRFSGSGSGTDFTLTISSLQPEDFATYYCQQYWSTPFTFGGGTKVEIKGQPKAAPSVTLFPPSSEELQANKATLVCYISDFYPGAVTVAWKADSSPVKAGVETTTPSKQSNNKYAAWSYLSLTPEQWKSHRSYSCQVTHEGSTVEKTVAPTEC
modifications: N-terminal glutamine (residue 1) may be converted to pyroglutamic acid; C-terminal lysine (residue 445) may be truncated post-translationally; C-terminal lysine (residue 451) may be truncated post-translationally
notes: Heterodimeric IgG1 of four different chains; also called exemplified bispecific antibody; IgG bispecific antibody of the present invention
Consider B1, for which, in [1], the “IC50, inhibition of killing of L929 cells by CHO cells carrying non-cleavable membrane bound human TNFα (MTT)” value was 3.99 nM. For the same molecule, the “relative EC50, human complement-mediated effector function (CDC) on CHO cells carrying non-cleavable human membrane TNFα (T74E construct as internal standard = 1)” value in test [1] was 0.74 relative to internal standard. Also, the “IC50, inhibition of IL-23-induced Stat 3 phosphorylation (luciferase) in Kit225 cells” value in test [2] amounted to 0.066 pM. For the same molecule, in [3], the “IC50, inhibition of soluble human TNFα-induced killing of L929 cells (MTT)” value stood at 0.32 nM. The Kd in [4] came to 720 nM; in test [5], 4000 nM; in test [6] it was 260 nM; in test [7] it was 0.0648 nM; in [9] it was 0.245 nM; in test [10], 0.0496 nM. Further, in [8], the binding result was “binds”. Also, the koff in test [9] was determined as 0.000101 s⁻¹; in [10], 0.000155 s⁻¹. The kon in test [9] stood at 412000 M⁻¹ s⁻¹; in [10], 3.1e+06 M⁻¹ s⁻¹. Moreover, the “Relative EC50, induction of FcγRIIIa-mediated effector function (NFAT luciferase in Jurkat cells with CHO cells carrying non-cleavable human membrane TNFα; T74E construct as internal standard = 1)” value in [11] is 0.75 relative to internal standard.
